Numbering of substitutions follows the chain as printed. Blank lines part the entries; values can stand above or below the molecule they belong to.
Tests used:
[1] = molecular target: T1, CRD domain of human Galectin-3 (human, UniProt P17931 106-250); assay: competitive ELISA, inhibition of ASF binding to immobilized Hu-Gal3-CRD
T1 construct: Histidine-tagged; also called hu-Gal3-CRD; Hu-Gal3-CRD
Method: The inhibitory properties and IC50 of the anti-Gal3 antibodies were determined in an ELISA competitive assay by measuring the binding of ASF to immobilized CRD domain of human Gal3 in absence or presence of the antibodies at different concentrations.
The inhibition assay was performed on Hu-Gal3-CRD which was immobilized at 1 μg/mL through its His-tag on functionalized microplates. A 2-fold or 3-fold serial dilution was carried-out with the purified IgGs and added to the wells with immobilized Hu-Gal3-CRD. ASF (A1908-Sigma reference) was added at 8 μg/mL in each well with or without IgGs. ASF binding to Hu-Gal3-CRD was detected with the HRP-labeled anti-ASF sheep antibody. IC50 were estimated according to the model equation Y=Bottom+(Top−Bottom)/(1+(X/IC50)). Indicative maximal percentages of inhibition were obtained with the formula: 100%−(((mean of bottom plateau values of IgGs)×100%)/mean of irrelevant IgG values)

[2] = molecular target: T2, full length mouse Galectin-3 (mouse, UniProt P16110 2-264); assay: dose-response ELISA on immobilized m-Gal3-FL, IgG
T2 construct: Printed as 'full length'; recombinant, immobilized through a histidine tag; also called m-Gal3-FL; murine Gal3
T2 sequence (P16110 2-264 limits assumed): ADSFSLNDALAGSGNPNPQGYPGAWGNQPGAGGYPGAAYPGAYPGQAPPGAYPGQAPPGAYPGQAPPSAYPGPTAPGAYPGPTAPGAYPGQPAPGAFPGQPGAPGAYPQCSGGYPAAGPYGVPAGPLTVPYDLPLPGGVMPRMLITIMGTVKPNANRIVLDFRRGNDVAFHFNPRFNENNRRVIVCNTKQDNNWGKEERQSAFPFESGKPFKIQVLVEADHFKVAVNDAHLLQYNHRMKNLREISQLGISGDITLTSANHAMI
Method: (§1) To determine the half maximal effective concentration (EC50) of the antibodies, ELISA dose-response experiments were performed on Hu-Gal3-FL and on m-Gal3-FL.
(§2) Hu-Gal3-FL and m-Gal3-FL were immobilized at 3 μg/mL through their His-tag on functionalized microplates as before. A 3.3-fold serial dilution was carried-out with the purified IgGs, added to the wells containing immobilized Hu-Gal3-FL or m-Gal3-FL and detected with an anti-Fab.HRP antibody.

[3] = molecular target: T1, CRD domain of human Galectin-3; assay: SPR single-cycle kinetics, captured antibody, Gal3-CRD 0.5-50 nM
Method: (§3) The CM5 sensor surface was first immobilized with an anti-human Fc mAb using a standard protocol. The entire sensor surface was first activated by injecting a 1:1 (v/v) mixture of 400 mM EDC and 100 mM NHS at a flow rate of 10 μL/minute for 7 minutes. Monoclonal anti-human Fc antibody (Millipore AP113), 25 μg/mL in Na acetate pH5, 360 s were flowed at 10 μL/minute to reach 10000 RU on both flow cells followed by the injection of 1 M ethanolamine, pH8.5 for 7 minutes at a flow rate of 10 μL/minute. During the entire immobilization procedure, HBS-P was used as the running buffer.
(§4) Antibody samples were prepared at 5 μg/ml and were injected for 30 seconds at 10 μL/minute. In general, 400 to 680 resonance units of antibodies were captured on the chip.
(§5) Kd values were also determined by SPR using […] kinetics analysis. A total of 5 concentrations of Gal3 CRD domain from human, dog, rat and cynomolgus (Novalix) [0.5-50] nM were injected over the antibody capture surfaces for 210 seconds followed by a dissociation phase of 600 seconds at 30 μL/minute. At the end of each cycle, capture surfaces were regenerated by 2 injections of glycine pH 1.5, for 30 seconds at 10 μL/minute, followed by an extra wash with glycine pH 1.5. Fresh antibody was captured at the beginning of each cycle.

[4] = molecular target: T3, Gal3 CRD domain from cynomolgus (cynomolgus, UniProt A0A7N9CYL1 103-247); assay: as above
T3 construct: domain: CRD domain; also called cynomolgus Gal3-CRD
Method: as §3, §4, §5

Gal3 CRD domain from rat = molecular target: T4, Gal3 CRD domain from rat (rat, UniProt P08699 118-262, limits assumed); assay: as above
T4 construct: domain: CRD domain; also called rat Gal3-CRD
T4 sequence (looked up): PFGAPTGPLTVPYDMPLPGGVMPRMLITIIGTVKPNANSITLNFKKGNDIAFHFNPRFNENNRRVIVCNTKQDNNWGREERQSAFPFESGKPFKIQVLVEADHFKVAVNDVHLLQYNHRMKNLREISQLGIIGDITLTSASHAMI
Method: as §3, §4, §5

Gal3 CRD domain from dog = molecular target: T5, Gal3 CRD domain from dog (dog, UniProt P38486 152-296, limits assumed); assay: as above
T5 construct: domain: CRD domain; also called dog Gal3-CRD
T5 sequence (looked up): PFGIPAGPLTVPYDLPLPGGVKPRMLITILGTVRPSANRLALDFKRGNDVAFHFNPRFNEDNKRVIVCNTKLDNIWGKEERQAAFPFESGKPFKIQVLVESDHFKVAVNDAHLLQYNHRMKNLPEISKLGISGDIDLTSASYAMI
Method: as §3, §4, §5

[5] = molecular target: T6, full length human Galectin-3 (human, UniProt P17931 2-250); assay: SPR Biacore T-200, antibody captured by anti-human Fc, Gal3 in solution
T6 construct: Printed as 'full length'; recombinant, immobilized through a histidine tag; also called hu-Gal3-FL; Hu-Gal3-FL
T6 sequence (P17931 2-250 limits assumed): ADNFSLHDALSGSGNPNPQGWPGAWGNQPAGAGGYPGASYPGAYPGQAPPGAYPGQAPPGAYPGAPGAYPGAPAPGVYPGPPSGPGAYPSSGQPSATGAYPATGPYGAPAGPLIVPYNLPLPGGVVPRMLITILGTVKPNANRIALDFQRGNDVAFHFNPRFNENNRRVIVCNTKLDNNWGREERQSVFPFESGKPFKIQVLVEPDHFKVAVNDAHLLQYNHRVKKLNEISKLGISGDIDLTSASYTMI
Method: as §3, §4

[6] = molecular target: T2, full length mouse Galectin-3; assay: as above
Method: as §3, §4

[7] = molecular target: T6, full length human Galectin-3; assay: dose-response ELISA on immobilized Hu-Gal3-FL, IgG
Method: as §1, §2

[8] = molecular target: T2, full length mouse Galectin-3; assay: ratio of the ELISA EC50 values on Hu-Gal3-FL and m-Gal3-FL
Method: as §1, §2

[9] = molecular target: T7, human full-length Galectin-1 (human, UniProt P09382 2-135); assay: ELISA on immobilised antigen (3 µg/mL), purified IgG at 15-20 µg/mL, anti-Fab.HRP, OD 450 nm
T7 construct: full-length; Histidine-tagged; also called Hu-Gall; Gall
T7 sequence (P09382 2-135 limits assumed): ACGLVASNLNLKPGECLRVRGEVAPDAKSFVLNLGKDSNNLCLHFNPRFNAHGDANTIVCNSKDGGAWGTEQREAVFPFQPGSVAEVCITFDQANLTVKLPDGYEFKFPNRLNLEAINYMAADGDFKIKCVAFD
Method: (§6) IgG specificity to Gal3 was tested by checking the absence of binding on human Gall and Gal7 by ELISA.
(§7) Hu-Gall and Hu-Gal7 were immobilized at 3 μg/mL. Purified IgGs were added into the wells (15-20 μg/mL final concentration) and detected with an anti-Fab.HRP antibody. Rabbit antibodies directed against Gall (Abcam ab25138 reference) and Gal7 (Abcam ab108623 reference) were used at 5 μg/mL as antigen-coating positive controls and detected with an anti-rabbit.HRP secondary antibody (7074S-Cell Signaling reference).

[10] = molecular target: T8, human full-length Galectin-7 (human, UniProt P47929 1-136); assay: as above
T8 construct: full-length; Histidine-tagged; also called Hu-Gal7; Gal7
T8 sequence (P47929 whole entry): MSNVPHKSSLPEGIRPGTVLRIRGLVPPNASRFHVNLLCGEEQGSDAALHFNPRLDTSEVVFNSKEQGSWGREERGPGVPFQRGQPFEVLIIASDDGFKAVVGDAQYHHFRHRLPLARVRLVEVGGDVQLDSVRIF
Method: as §6, §7

rat model of ARDS [11] = assay: Rat ARDS model (LPS challenge): total BALF protein (BCA assay); type: in vivo; conditions: antibodies 14 mg/kg x3 prior to LPS; dexamethasone 10 mg/kg oral; vs LPS group; FIG. 17
Method: (§8) Positive control rats received 3 doses of sterile phosphate buffer at day minus 11, minus 6 and minus 1 prior LPS challenge (0.25 mg/kg by subcutaneous route at day 1). Negative control rats received one oral dose of Dexamethasone at 10 mg/kg (dissolved in 0.5% carboxymethyl cellulose in deionized water) 2 hours prior LPS challenge (0.25 mg/kg by subcutaneous route at day 1). LPS (lipopolysaccharide) causes an acute inflammatory response, whereas dexamethasone has anti-inflammatory effects thus being the reference treatment in this model.
(§9) Antibody-treated rats received 3 doses of antibodies (14 mg/kg) at day minus 11, minus 6 and minus 1 prior to LPS challenge (0.25 mg/kg by subcutaneous route at day 1). Each antibody was solubilized in sterile PBS before injection.
(§10) Control rats of the experiment received 3 doses of sterile phosphate buffer at day minus 11, minus 6 and minus 1 without LPS challenge at day 1.
The impact of anti-Gal3 antibody treatment in LPS challenged rats were evaluated by quantification of proteins (by BCA assay) in BALF and compared to the positive control group (LPS challenge with PBS treatment) (FIG. 17). The presence of protein in BALF reflects the damage to the air-blood barrier. […] Total BALF protein numeration levels were decreased after treatment with anti-inflammatory dexamethasone.

rat model of ARDS [12] = assay: Rat ARDS model (LPS challenge): neutrophils counts in BALF; type: in vivo; conditions: antibodies 14 mg/kg x3 prior to LPS; dexamethasone 10 mg/kg oral; vs LPS group; FIG. 16
Method: as §8, §9, §10
The impact of anti-Gal3 antibody treatment in LPS challenged rats were evaluated by quantification of neutrophils in Bronchoalveolar Lavage Fluid and compared to the positive control group (LPS challenge with PBS treatment) (FIG. 16). […] Neutrophils numeration levels were decreased after treatment with anti-inflammatory dexamethasone.

plasma TNF alpha = assay: Rat ARDS model (LPS challenge): plasma TNF alpha (MSD); type: in vivo; conditions: 4 h following LPS challenge; vs LPS group; FIG. 18
Method: as §8, §9, §10
For all rats, plasma sampling was performed 4 h following LPS challenge.
The impact of anti-Gal3 antibody treatment in LPS challenged rats were evaluated on plasma cytokine levels, namely TNF alpha and KC-GRO cytokines, and compared to the positive control group (LPS challenge with PBS treatment) (respectively FIG. 18A and FIG. 18B). TNF alpha and KC-GRO were quantified by using the MSD technology from Mesoscale.

[13] = tested on: murine model of HOCI-induced fibrosis; assay: HOCI-induced murine fibrosis model: skin thickness; type: in vivo, mice; conditions: second experiment, sustained effect until day 63
Method: In a first experiment, control mice (n=12) received a daily intradermal injection of 300 μL of sterile phosphate buffer saline (PBS) for 5 consecutive days per week, for a duration of 42 days. HOCI alone and HOCI with antibody (HOCI-antibody) treated mice (n=12 per group) received a daily intradermal injection of 300 μL of HOCI for 5 consecutive days per week, for a duration of 42 days. Antibody-treated mice also received a subcutaneous injection of 20 mg/kg antibody, starting at day minus one and every 5 days between day 5 and day 40. Each antibody was solubilized in sterile, endotoxin-free PBS before injection. In a second experiment, the same protocol was applied, except that duration of the study was 63 days and antibodies were given every 7 days starting at day minus 1 until day 62.
Mice that received daily injection of HOCI were also treated by intratracheal instillation of 0.5 mg/kg of TD139 compound (HOCI-TD139), a small molecule Gal3 inhibitor. In a first experiment, the administrations started from day 21 and the compound was given every 3 days until day 39. In a second experiment, the administrations started from day 20 and the compound was given every 3 days until day 62. TD139 was initially dissolved in 100% DMSO then diluted 50-fold in endotoxin-free PBS before administration.
The evolution of skin thickness was monitored by using an external caliper, every seven days until sacrifice.

T1 sequence (P17931 106-250 limits assumed): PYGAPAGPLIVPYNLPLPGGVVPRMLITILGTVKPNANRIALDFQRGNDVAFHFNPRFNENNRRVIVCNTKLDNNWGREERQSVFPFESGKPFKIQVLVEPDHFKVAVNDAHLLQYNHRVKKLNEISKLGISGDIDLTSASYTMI

B2: H10: anti-Gal3 monoclonal antibody, IgG1 format; VH SEQ ID NO 44, VL SEQ ID NO 45 (antibody, V domains shown)
VH: EVQLVESGGSLVKPGGSLRLSCAASGFTFSNYYMNWVRQAPGKGLEWISYINGASRDISYADFVKGRFTISRDNAKNSLYLQMNSLRAEDTAVYYCVRSSYGYSNYGSGMDVWGRGTLVTVSS
VL: QSVLTQPASVSGSPGQSITISCAGTSSDVGGSYNVAWYQQHPGKAPKLMIYNDANRPSGVSNRFSGSKSGNTASLTISGLQAEDEADYYCSSNTADSTRVFGGGTKLEIK
total BALF protein (rat model of ARDS [11]): also decreased
neutrophils counts in BALF (rat model of ARDS [12]): also decreased
TNF alpha plasma levels (plasma TNF alpha): also decreased, displaying an intermediary profile
HOCI-induced increase in skin thickness ([13]; 63 days, antibody 20 mg/kg s.c. every 7 days, FIG. 7B): significantly reduced
day from which reduction of skin thickness was significant [13]: 14 days

B4: anti-Gal3 antibody H10 (antibody, V domains shown)
VH: B2 VH
VL: B2 VL
IC50 [1]: 2.7 nM
Max % inhibition [1]: 89%
EC50 [2]: 5.9 nM
Kd [3]: 8.2 nM
Kd [4]: 5.6 nM
Kd (Gal3 CRD domain from rat): 12 nM
Kd (Gal3 CRD domain from dog): 24 nM
Kd [5]: 4.5 nM
Kd [6]: 2.72 nM
EC50 [7]: 0.2 nM
Ratio (Human/mouse Gal3 EC50 ratio) [8]: 30
binding result [9]: no binding (tested: 15-20 µg/mL)
binding result [10]: no binding (tested: 15-20 µg/mL)

More lines, in order of falling IC50 [1], values ahead:

IC50 [1]: 2.2 nM
Max % inhibition [1]: 99%
EC50 [2]: 0.99 nM
Kd [3]: 26 nM
Kd [4]: 11 nM
Kd (Gal3 CRD domain from rat): 8.6 nM
Kd (Gal3 CRD domain from dog): 26 nM
Kd [5]: 15 nM
Kd [6]: 2.8 nM
EC50 [7]: 0.37 nM
Ratio (Human/mouse Gal3 EC50 ratio) [8]: 3
binding result [9]: no binding (tested: 15-20 µg/mL)
binding result [10]: no binding (tested: 15-20 µg/mL)
B3: anti-Gal3 antibody D11 (antibody, V domains shown)
VH: EVQLVESGGSLVKPGGSLRLSCAASGFTFSNYNMNWVRQAPGKGLEWISSIYGSSRYIYYADFVKGRFTISRDNAKNSLYLQMNSLRAEDTAVYYCVRSSYGGMDVWGRGTLVTVSS
VL: B2 VL with N52Y, A54S, N55Y, N93Y, A95G, D96Y

IC50 [1]: 1.5 nM
Max % inhibition [1]: 89%
EC50 [2]: 0.3 nM
Kd [3]: 14 nM
Kd [4]: 7.4 nM
Kd (Gal3 CRD domain from rat): 15 nM
Kd (Gal3 CRD domain from dog): 23 nM
Kd [5]: 9 nM
Kd [6]: 4.14 nM
EC50 [7]: 0.07 nM
Ratio (Human/mouse Gal3 EC50 ratio) [8]: 4
binding result [9]: no binding (tested: 15-20 µg/mL)
binding result [10]: no binding (tested: 15-20 µg/mL)
B1: anti-Gal3 antibody E07 (antibody, V domains shown)
VH: B3 VH with S50N, S100Y
VL: B2 VL with S32Y, N34S, A36S, N52Y, A54S, N93Y, A95G, D96Y
